This is an account of results in paper doi:10.1101/2025.10.30.685657.

Test in all cases: live-cell long-exposure single-molecule localization microscopy
The target of assay [1] is T3SS injectisome of Yersinia enterocolitica (Yersinia enterocolitica (endogenous)) (UniProt Q01245).
Assay [2] has the same target. The source holds these as a separate data set.
Assay [3] has the same target. The source holds these as a separate data set.

Where two headings read alike, the source gives them in different places.

As to “Halo-tagged SctL (from UniProt Q01253 1-223) (natural protein)”, in assay [1], the bound time constant tau (inverse of koff) came out at 3.4 s; the short bound time constant tau (short component of the bi-exponential fit) amounted to 3.1 s; the weighted average bound time constant (short- and long-lived events) stood at 4.4 s. This substance yielded a bound time constant tau (inverse of koff) in assay [2] of 3.9 s.

For the substance “Halo-tagged SctQ (from UniProt Q79NI3 1-307) (natural protein)”, in assay [1], the bound time constant tau (inverse of koff) is 2.5 s, the long bound time constant tau (long component of the bi-exponential fit) turned out to be 23 s and the short bound time constant tau (short component of the bi-exponential fit) was found to be 4.5 s. The bound time constant tau (inverse of koff) in assay [2] stood at 4.1 s. In assay [3], this substance came in with a short bound time constant tau (short component of the bi-exponential fit) of 2.1 s; a weighted average bound time constant (short- and long-lived events) of 2.7 s.
